According to US20250084142A1 (INTARCIA THERAPEUTICS, published 2025):
Starred links: 1 amine or outer side, 2 acyl side, 3 side chain; linkers in the order of their positions; H or OH if unused. Non-standard residues stand in square brackets, D forms with d. Groups on a side chain read outwards from the residue. No end group written: not given here. *: point of attachment. C20 diacid = O=C(O)CCCCCCCCCCCCCCCCCCC(=O)*; C19 diacid = O=C(O)CCCCCCCCCCCCCCCCCC(=O)*; C18 diacid = O=C(O)CCCCCCCCCCCCCCCCC(=O)*; γGlu = O=C(O)[C@H](CCC(=O)[*:2])N[*:1]; hSer = N[C@@H](CCO)C(=O)O; αMeS = C[C@](N)(CO)C(=O)O

B1: Compound A28 (peptide)
peptide: PKPEKPGKDASPKEWNRYYK([γGlu-γGlu-C20 diacid])DLRHYLNWLTRQRF-NH2
modifications: N-terminus assumed
SMILES: CC(C)C[C@H](NC(=O)[C@H](CC(=O)O)NC(=O)[C@H](CCCCNC(=O)CC[C@H](NC(=O)CC[C@H](NC(=O)CCCCCCCCCCCCCCCCCCC(=O)O)C(=O)O)C(=O)O)NC(=O)[C@H](Cc1ccc(O)cc1)NC(=O)[C@H](Cc1ccc(O)cc1)NC(=O)[C@H](CCCNC(=N)N)NC(=O)[C@H](CC(N)=O)NC(=O)[C@H](Cc1c[nH]c2ccccc12)NC(=O)[C@H](CCC(=O)O)NC(=O)[C@H](CCCCN)NC(=O)[C@@H]1CCCN1C(=O)[C@H](CO)NC(=O)[C@H](C)NC(=O)[C@H](CC(=O)O)NC(=O)[C@H](CCCCN)NC(=O)CNC(=O)[C@@H]1CCCN1C(=O)[C@H](CCCCN)NC(=O)[C@H](CCC(=O)O)NC(=O)[C@@H]1CCCN1C(=O)[C@H](CCCCN)NC(=O)[C@@H]1CCCN1)C(=O)N[C@@H](CCCNC(=N)N)C(=O)N[C@@H](Cc1c[nH]cn1)C(=O)N[C@@H](Cc1ccc(O)cc1)C(=O)N[C@@H](CC(C)C)C(=O)N[C@@H](CC(N)=O)C(=O)N[C@@H](Cc1c[nH]c2ccccc12)C(=O)N[C@@H](CC(C)C)C(=O)N[C@H](C(=O)N[C@@H](CCCNC(=N)N)C(=O)N[C@@H](CCC(N)=O)C(=O)N[C@@H](CCCNC(=N)N)C(=O)N[C@@H](Cc1ccccc1)C(N)=O)[C@@H](C)O
B2: Compound A30 (peptide)
peptide: PKPEAPGK([γGlu-γGlu-C20 diacid])DASPEEW[hSer]RYYKDLRHYLNWLTRQRF-NH2
B3: Compound A31 (peptide)
peptide: PKPEAPGK([γGlu-γGlu-C20 diacid])DASPEEW[αMeS]RYYKDLRHYLNWLTRQRF-NH2
B4: Compound A35 (peptide)
peptide: PKPEK([γGlu-γGlu-C18 diacid])PGEDASPKEWDRYYKDLRHYLNWLTRQRF-NH2
modifications: N-terminus assumed
SMILES: CC(C)C[C@H](NC(=O)[C@H](CC(=O)O)NC(=O)[C@H](CCCCN)NC(=O)[C@H](Cc1ccc(O)cc1)NC(=O)[C@H](Cc1ccc(O)cc1)NC(=O)[C@H](CCCNC(=N)N)NC(=O)[C@H](CC(=O)O)NC(=O)[C@H](Cc1c[nH]c2ccccc12)NC(=O)[C@H](CCC(=O)O)NC(=O)[C@H](CCCCN)NC(=O)[C@@H]1CCCN1C(=O)[C@H](CO)NC(=O)[C@H](C)NC(=O)[C@H](CC(=O)O)NC(=O)[C@H](CCC(=O)O)NC(=O)CNC(=O)[C@@H]1CCCN1C(=O)[C@H](CCCCNC(=O)CC[C@H](NC(=O)CC[C@H](NC(=O)CCCCCCCCCCCCCCCCC(=O)O)C(=O)O)C(=O)O)NC(=O)[C@H](CCC(=O)O)NC(=O)[C@@H]1CCCN1C(=O)[C@H](CCCCN)NC(=O)[C@@H]1CCCN1)C(=O)N[C@@H](CCCNC(=N)N)C(=O)N[C@@H](Cc1c[nH]cn1)C(=O)N[C@@H](Cc1ccc(O)cc1)C(=O)N[C@@H](CC(C)C)C(=O)N[C@@H](CC(N)=O)C(=O)N[C@@H](Cc1c[nH]c2ccccc12)C(=O)N[C@@H](CC(C)C)C(=O)N[C@H](C(=O)N[C@@H](CCCNC(=N)N)C(=O)N[C@@H](CCC(N)=O)C(=O)N[C@@H](CCCNC(=N)N)C(=O)N[C@@H](Cc1ccccc1)C(N)=O)[C@@H](C)O
B5: Compound A34 (peptide)
peptide: PKPEKPGEDASPKEWDRYYK([γGlu-γGlu-C20 diacid])DLRHYLNWLTRQRF-NH2
modifications: N-terminus assumed
SMILES: CC(C)C[C@H](NC(=O)[C@H](CC(=O)O)NC(=O)[C@H](CCCCNC(=O)CC[C@H](NC(=O)CC[C@H](NC(=O)CCCCCCCCCCCCCCCCCCC(=O)O)C(=O)O)C(=O)O)NC(=O)[C@H](Cc1ccc(O)cc1)NC(=O)[C@H](Cc1ccc(O)cc1)NC(=O)[C@H](CCCNC(=N)N)NC(=O)[C@H](CC(=O)O)NC(=O)[C@H](Cc1c[nH]c2ccccc12)NC(=O)[C@H](CCC(=O)O)NC(=O)[C@H](CCCCN)NC(=O)[C@@H]1CCCN1C(=O)[C@H](CO)NC(=O)[C@H](C)NC(=O)[C@H](CC(=O)O)NC(=O)[C@H](CCC(=O)O)NC(=O)CNC(=O)[C@@H]1CCCN1C(=O)[C@H](CCCCN)NC(=O)[C@H](CCC(=O)O)NC(=O)[C@@H]1CCCN1C(=O)[C@H](CCCCN)NC(=O)[C@@H]1CCCN1)C(=O)N[C@@H](CCCNC(=N)N)C(=O)N[C@@H](Cc1c[nH]cn1)C(=O)N[C@@H](Cc1ccc(O)cc1)C(=O)N[C@@H](CC(C)C)C(=O)N[C@@H](CC(N)=O)C(=O)N[C@@H](Cc1c[nH]c2ccccc12)C(=O)N[C@@H](CC(C)C)C(=O)N[C@H](C(=O)N[C@@H](CCCNC(=N)N)C(=O)N[C@@H](CCC(N)=O)C(=O)N[C@@H](CCCNC(=N)N)C(=O)N[C@@H](Cc1ccccc1)C(N)=O)[C@@H](C)O
B6: Compound A33 (peptide)
peptide: PKPEAPGK([γGlu-γGlu-C19 diacid])DASPEEWDRYYKDLRHYLNWLTRQRF-NH2
B7: Compound A29 (peptide)
peptide: PKPEKPGEDASPKEWNRYYK([γGlu-γGlu-C20 diacid])DLRHYLNWLTRQRF-NH2
modifications: N-terminus assumed
SMILES: CC(C)C[C@H](NC(=O)[C@H](CC(=O)O)NC(=O)[C@H](CCCCNC(=O)CC[C@H](NC(=O)CC[C@H](NC(=O)CCCCCCCCCCCCCCCCCCC(=O)O)C(=O)O)C(=O)O)NC(=O)[C@H](Cc1ccc(O)cc1)NC(=O)[C@H](Cc1ccc(O)cc1)NC(=O)[C@H](CCCNC(=N)N)NC(=O)[C@H](CC(N)=O)NC(=O)[C@H](Cc1c[nH]c2ccccc12)NC(=O)[C@H](CCC(=O)O)NC(=O)[C@H](CCCCN)NC(=O)[C@@H]1CCCN1C(=O)[C@H](CO)NC(=O)[C@H](C)NC(=O)[C@H](CC(=O)O)NC(=O)[C@H](CCC(=O)O)NC(=O)CNC(=O)[C@@H]1CCCN1C(=O)[C@H](CCCCN)NC(=O)[C@H](CCC(=O)O)NC(=O)[C@@H]1CCCN1C(=O)[C@H](CCCCN)NC(=O)[C@@H]1CCCN1)C(=O)N[C@@H](CCCNC(=N)N)C(=O)N[C@@H](Cc1c[nH]cn1)C(=O)N[C@@H](Cc1ccc(O)cc1)C(=O)N[C@@H](CC(C)C)C(=O)N[C@@H](CC(N)=O)C(=O)N[C@@H](Cc1c[nH]c2ccccc12)C(=O)N[C@@H](CC(C)C)C(=O)N[C@H](C(=O)N[C@@H](CCCNC(=N)N)C(=O)N[C@@H](CCC(N)=O)C(=O)N[C@@H](CCCNC(=N)N)C(=O)N[C@@H](Cc1ccccc1)C(N)=O)[C@@H](C)O
B8: Compound A32 (peptide)
peptide: PKPEAPGK([γGlu-γGlu-C18 diacid])DASPEEWDRYYKDLRHYLNWLTRQRF-NH2
B9: Compound A27 (peptide)
peptide: PKPEKPGK([γGlu-γGlu-C20 diacid])DASPKEWNRYYKDLRHYLNWLTRQRF-NH2
modifications: N-terminus assumed
SMILES: CC(C)C[C@H](NC(=O)[C@H](CC(=O)O)NC(=O)[C@H](CCCCN)NC(=O)[C@H](Cc1ccc(O)cc1)NC(=O)[C@H](Cc1ccc(O)cc1)NC(=O)[C@H](CCCNC(=N)N)NC(=O)[C@H](CC(N)=O)NC(=O)[C@H](Cc1c[nH]c2ccccc12)NC(=O)[C@H](CCC(=O)O)NC(=O)[C@H](CCCCN)NC(=O)[C@@H]1CCCN1C(=O)[C@H](CO)NC(=O)[C@H](C)NC(=O)[C@H](CC(=O)O)NC(=O)[C@H](CCCCNC(=O)CC[C@H](NC(=O)CC[C@H](NC(=O)CCCCCCCCCCCCCCCCCCC(=O)O)C(=O)O)C(=O)O)NC(=O)CNC(=O)[C@@H]1CCCN1C(=O)[C@H](CCCCN)NC(=O)[C@H](CCC(=O)O)NC(=O)[C@@H]1CCCN1C(=O)[C@H](CCCCN)NC(=O)[C@@H]1CCCN1)C(=O)N[C@@H](CCCNC(=N)N)C(=O)N[C@@H](Cc1c[nH]cn1)C(=O)N[C@@H](Cc1ccc(O)cc1)C(=O)N[C@@H](CC(C)C)C(=O)N[C@@H](CC(N)=O)C(=O)N[C@@H](Cc1c[nH]c2ccccc12)C(=O)N[C@@H](CC(C)C)C(=O)N[C@H](C(=O)N[C@@H](CCCNC(=N)N)C(=O)N[C@@H](CCC(N)=O)C(=O)N[C@@H](CCCNC(=N)N)C(=O)N[C@@H](Cc1ccccc1)C(N)=O)[C@@H](C)O

target: T1, NPY5R; assay: cell-based or functional assay
T1 sequence (Q15761 1-445, species assumed, looked up): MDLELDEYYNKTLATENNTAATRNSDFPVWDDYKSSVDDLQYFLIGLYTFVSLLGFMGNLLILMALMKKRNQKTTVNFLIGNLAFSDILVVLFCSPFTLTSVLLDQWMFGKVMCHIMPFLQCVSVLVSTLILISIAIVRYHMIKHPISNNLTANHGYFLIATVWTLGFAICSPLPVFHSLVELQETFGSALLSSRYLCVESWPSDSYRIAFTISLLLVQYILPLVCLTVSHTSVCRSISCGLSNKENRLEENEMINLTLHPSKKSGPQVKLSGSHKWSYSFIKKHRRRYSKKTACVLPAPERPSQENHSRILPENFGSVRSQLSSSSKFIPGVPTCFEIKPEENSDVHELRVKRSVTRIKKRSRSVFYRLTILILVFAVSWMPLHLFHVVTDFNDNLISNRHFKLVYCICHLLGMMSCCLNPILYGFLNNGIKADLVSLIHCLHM

| Binder | NPY5R pEC50 |
| --- | --- |
| B1 | 8.8 -Log(EC50, M) |
| B2 | 8.5 -Log(EC50, M) |
| B3 | 8.7 -Log(EC50, M) |
| B4 | 9.1 -Log(EC50, M) |
| B5 | 8.8 -Log(EC50, M) |
| B6 | 8.9 -Log(EC50, M) |
| B7 | 9 -Log(EC50, M) |
| B8 | 9 -Log(EC50, M) |
| B9 | 8.9 -Log(EC50, M) |

target: T2, NPY2R; assay: cell-based or functional assay
T2 sequence (P49146 1-381, species assumed, looked up): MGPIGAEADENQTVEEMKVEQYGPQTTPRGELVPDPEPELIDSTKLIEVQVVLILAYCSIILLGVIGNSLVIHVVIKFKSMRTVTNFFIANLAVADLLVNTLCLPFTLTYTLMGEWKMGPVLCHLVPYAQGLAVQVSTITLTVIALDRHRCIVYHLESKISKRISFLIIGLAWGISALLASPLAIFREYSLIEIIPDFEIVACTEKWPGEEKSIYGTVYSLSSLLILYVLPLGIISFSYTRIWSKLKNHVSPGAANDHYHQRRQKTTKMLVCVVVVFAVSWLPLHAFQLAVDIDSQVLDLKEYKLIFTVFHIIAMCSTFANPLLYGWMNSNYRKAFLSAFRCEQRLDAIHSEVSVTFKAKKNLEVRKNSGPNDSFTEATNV

| Binder | NPY2R pEC50 |
| --- | --- |
| B1 | 10.5 -Log(EC50, M) |
| B2 | 10.3 -Log(EC50, M) |
| B3 | 10.4 -Log(EC50, M) |
| B4 | 10.5 -Log(EC50, M) |
| B5 | 10.2 -Log(EC50, M) |
| B6 | 10.4 -Log(EC50, M) |
| B7 | 10.9 -Log(EC50, M) |
| B8 | 10.8 -Log(EC50, M) |
| B9 | 10.7 -Log(EC50, M) |
